# Laboratory results published in publication PMC9482650, “Quantitative fragmentomics allow affinity mapping of interactomes” (Nature Communications, 2022).
# T1: SNTG1, Q9NSN8
# T1 sequence (Q9NSN8 52-150, limits assumed, looked up): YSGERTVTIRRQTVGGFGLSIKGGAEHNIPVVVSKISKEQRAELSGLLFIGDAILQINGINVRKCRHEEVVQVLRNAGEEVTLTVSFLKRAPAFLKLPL
# T2: LNX2_2, Q8N448
# T2 sequence (Q8N448 334-432, limits assumed, looked up): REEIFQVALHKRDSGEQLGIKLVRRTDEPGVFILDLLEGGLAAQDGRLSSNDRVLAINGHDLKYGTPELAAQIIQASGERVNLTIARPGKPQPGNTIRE
# T3: NHERF3_4, Q5T2W1
# T3 sequence (Q5T2W1 373-468, limits assumed, looked up): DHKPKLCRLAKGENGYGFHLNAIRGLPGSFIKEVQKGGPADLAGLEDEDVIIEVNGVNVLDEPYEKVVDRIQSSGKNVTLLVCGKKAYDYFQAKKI
# T4: LIN7C, Q9NUP9
# T4 sequence (Q9NUP9 88-185, limits assumed, looked up): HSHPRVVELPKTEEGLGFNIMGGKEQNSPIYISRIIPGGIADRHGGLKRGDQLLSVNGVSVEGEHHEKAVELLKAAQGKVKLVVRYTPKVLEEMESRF
# T5: RHPN1, Q8TCX5
# T5 sequence (Q8TCX5 508-602, limits assumed, looked up): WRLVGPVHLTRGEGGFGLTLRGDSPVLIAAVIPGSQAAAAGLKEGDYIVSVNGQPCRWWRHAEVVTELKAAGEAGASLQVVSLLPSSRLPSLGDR
# T6: MPP2, Q14168
# T6 sequence (Q14168 180-250, limits assumed, looked up): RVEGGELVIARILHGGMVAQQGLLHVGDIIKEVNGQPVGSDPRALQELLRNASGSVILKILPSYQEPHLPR
# T7: SHANK1, Q9Y566
# T7 sequence (Q9Y566 658-767, limits assumed, looked up): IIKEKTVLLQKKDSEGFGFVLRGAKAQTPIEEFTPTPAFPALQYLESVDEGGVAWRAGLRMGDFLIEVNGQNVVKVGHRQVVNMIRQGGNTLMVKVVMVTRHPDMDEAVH
# T8: DLG3_2, Q92796
# T8 sequence (Q92796 221-321, limits assumed, looked up): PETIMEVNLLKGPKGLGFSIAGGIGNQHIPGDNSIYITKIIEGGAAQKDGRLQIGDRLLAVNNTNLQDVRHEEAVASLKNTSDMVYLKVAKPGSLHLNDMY
# T9: DFNB31_3, Q9P202
# T9 sequence (Q9P202 811-907, limits assumed, looked up): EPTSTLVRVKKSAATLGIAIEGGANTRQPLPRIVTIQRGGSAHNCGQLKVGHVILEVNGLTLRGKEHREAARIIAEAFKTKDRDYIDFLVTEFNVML
# T10: SYNJ2BP, P57105
# T10 sequence (P57105 8-110, limits assumed, looked up): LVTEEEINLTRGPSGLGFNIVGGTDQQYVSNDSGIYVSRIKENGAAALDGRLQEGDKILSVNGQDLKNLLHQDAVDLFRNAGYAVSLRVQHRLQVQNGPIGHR
# Target: T1, SNTG1, Q9NSN8
# Experiment: holdup assay
# Parameters: key: below the threshold = too weak to quantify, mostly under pKd 3.1 to 4
# Settings: plain residues with an end cap or a label only (N-terminal biotin on a linker: ttds)
row,pKd,Binder
1,below the threshold,"EMDRRPATVV [PLCB4, Q15147]"

# Target: LNX1_1, Q8TBB1
# Sequence (Q8TBB1 261-371): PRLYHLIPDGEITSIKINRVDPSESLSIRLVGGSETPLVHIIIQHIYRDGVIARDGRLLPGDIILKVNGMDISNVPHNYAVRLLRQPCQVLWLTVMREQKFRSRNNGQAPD
# Experiment: holdup assay
# Parameters: key: below the threshold = too weak to quantify, mostly under pKd 3.1 to 4
# Settings: plain residues with an end cap or a label only (N-terminal biotin on a linker: ttds)
row,pKd,Binder
1,4.01,"EMDRRPATVV [PLCB4, Q15147]"

# Target: NHERF2_2, Q15599
# Sequence (Q15599 142-238): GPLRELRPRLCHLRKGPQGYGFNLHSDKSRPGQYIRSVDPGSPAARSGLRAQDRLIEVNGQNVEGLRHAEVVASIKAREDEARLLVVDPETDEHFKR
# Experiment: holdup assay
# Parameters: key: below the threshold = too weak to quantify, mostly under pKd 3.1 to 4
# Settings: plain residues with an end cap or a label only (N-terminal biotin on a linker: ttds)
row,pKd,Binder
1,below the threshold,"EMDRRPATVV [PLCB4, Q15147]"

# Target: PDZRN4_1, Q6ZMN7
# Sequence (Q6ZMN7 213-318): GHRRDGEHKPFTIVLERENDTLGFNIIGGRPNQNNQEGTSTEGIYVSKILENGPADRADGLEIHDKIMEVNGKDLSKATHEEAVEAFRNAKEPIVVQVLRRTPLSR
# Experiment: holdup assay
# Parameters: key: below the threshold = too weak to quantify, mostly under pKd 3.1 to 4
# Settings: plain residues with an end cap or a label only (N-terminal biotin on a linker: ttds)
row,pKd,Binder
1,3.91,"EMDRRPATVV [PLCB4, Q15147]"

# Target: DLG4_2, P78352
# Sequence (P78352 155-259): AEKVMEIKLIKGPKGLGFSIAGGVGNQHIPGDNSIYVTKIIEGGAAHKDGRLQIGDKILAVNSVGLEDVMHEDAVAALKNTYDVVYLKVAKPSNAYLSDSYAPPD
# Experiment: holdup assay
# Parameters: key: below the threshold = too weak to quantify, mostly under pKd 3.1 to 4
# Settings: plain residues with an end cap or a label only (N-terminal biotin on a linker: ttds)
row,pKd,Binder
1,4.25,"EMDRRPATVV [PLCB4, Q15147]"

# Target: T2, LNX2_2, Q8N448
# Experiment: holdup assay
# Parameters: key: below the threshold = too weak to quantify, mostly under pKd 3.1 to 4
# Settings: plain residues with an end cap or a label only (N-terminal biotin on a linker: ttds)
row,pKd,Binder
1,4.93,"EMDRRPATVV [PLCB4, Q15147]"

# Target: T3, NHERF3_4, Q5T2W1
# Experiment: holdup assay
# Parameters: key: below the threshold = too weak to quantify, mostly under pKd 3.1 to 4
# Settings: plain residues with an end cap or a label only (N-terminal biotin on a linker: ttds)
row,pKd,Binder
1,below the threshold,"EMDRRPATVV [PLCB4, Q15147]"

# Target: T4, LIN7C, Q9NUP9
# Experiment: holdup assay
# Parameters: key: below the threshold = too weak to quantify, mostly under pKd 3.1 to 4
# Settings: plain residues with an end cap or a label only (N-terminal biotin on a linker: ttds)
row,pKd,Binder
1,below the threshold,"EMDRRPATVV [PLCB4, Q15147]"

# Target: NHERF4_2, Q86UT5
# Sequence (Q86UT5 220-308): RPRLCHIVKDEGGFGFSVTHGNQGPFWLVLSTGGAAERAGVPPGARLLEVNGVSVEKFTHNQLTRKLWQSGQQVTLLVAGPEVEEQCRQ
# Experiment: holdup assay
# Parameters: key: below the threshold = too weak to quantify, mostly under pKd 3.1 to 4
# Settings: plain residues with an end cap or a label only (N-terminal biotin on a linker: ttds)
row,pKd,Binder
1,below the threshold,"EMDRRPATVV [PLCB4, Q15147]"

# Target: T5, RHPN1, Q8TCX5
# Experiment: holdup assay
# Parameters: key: below the threshold = too weak to quantify, mostly under pKd 3.1 to 4
# Settings: plain residues with an end cap or a label only (N-terminal biotin on a linker: ttds)
row,pKd,Binder
1,3.74,"EMDRRPATVV [PLCB4, Q15147]"

# Target: T6, MPP2, Q14168
# Experiment: holdup assay
# Parameters: key: below the threshold = too weak to quantify, mostly under pKd 3.1 to 4
# Settings: plain residues with an end cap or a label only (N-terminal biotin on a linker: ttds)
row,pKd,Binder
1,below the threshold,"EMDRRPATVV [PLCB4, Q15147]"

# Target: FRMPD3, Q5JV73
# Sequence (Q5JV73 12-100): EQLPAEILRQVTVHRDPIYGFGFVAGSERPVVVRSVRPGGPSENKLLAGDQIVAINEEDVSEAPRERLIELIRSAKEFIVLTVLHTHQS
# Experiment: holdup assay
# Parameters: key: below the threshold = too weak to quantify, mostly under pKd 3.1 to 4
# Settings: plain residues with an end cap or a label only (N-terminal biotin on a linker: ttds)
row,pKd,Binder
1,3.64,"EMDRRPATVV [PLCB4, Q15147]"

# Target: PTPN3, P26045
# Sequence (P26045 505-587): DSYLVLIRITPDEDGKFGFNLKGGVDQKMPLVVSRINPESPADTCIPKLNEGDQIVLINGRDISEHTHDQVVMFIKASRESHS
# Experiment: holdup assay
# Parameters: key: below the threshold = too weak to quantify, mostly under pKd 3.1 to 4
# Settings: plain residues with an end cap or a label only (N-terminal biotin on a linker: ttds)
row,pKd,Binder
1,below the threshold,"EMDRRPATVV [PLCB4, Q15147]"

# Target: MAGI1_2, Q96QZ7
# Sequence (Q96QZ7 456-580): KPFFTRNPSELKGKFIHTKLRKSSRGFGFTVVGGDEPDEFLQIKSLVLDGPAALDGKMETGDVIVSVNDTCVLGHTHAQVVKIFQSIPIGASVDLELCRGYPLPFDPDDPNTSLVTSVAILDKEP
# Experiment: holdup assay
# Parameters: key: below the threshold = too weak to quantify, mostly under pKd 3.1 to 4
# Settings: plain residues with an end cap or a label only (N-terminal biotin on a linker: ttds)
row,pKd,Binder
1,below the threshold,"EMDRRPATVV [PLCB4, Q15147]"

# Target: MAST1, Q9Y2H9
# Sequence (Q9Y2H9 962-1065): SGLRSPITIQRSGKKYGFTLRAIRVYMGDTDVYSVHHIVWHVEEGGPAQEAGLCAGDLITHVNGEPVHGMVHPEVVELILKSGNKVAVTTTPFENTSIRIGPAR
# Experiment: holdup assay
# Parameters: key: below the threshold = too weak to quantify, mostly under pKd 3.1 to 4
# Settings: plain residues with an end cap or a label only (N-terminal biotin on a linker: ttds)
row,pKd,Binder
1,4.48,"EMDRRPATVV [PLCB4, Q15147]"

# Target: T7, SHANK1, Q9Y566
# Experiment: holdup assay
# Parameters: key: below the threshold = too weak to quantify, mostly under pKd 3.1 to 4
# Settings: plain residues with an end cap or a label only (N-terminal biotin on a linker: ttds)
row,pKd,Binder
1,below the threshold,"EMDRRPATVV [PLCB4, Q15147]"

# Target: GORASP2, Q9H8Y8
# Experiment: holdup assay
# Parameters: key: below the threshold = too weak to quantify, mostly under pKd 3.1 to 4
# Settings: plain residues with an end cap or a label only (N-terminal biotin on a linker: ttds)
row,pKd,Binder
1,4.23,"EMDRRPATVV [PLCB4, Q15147]"

# Target: T8, DLG3_2, Q92796
# Experiment: holdup assay
# Parameters: key: below the threshold = too weak to quantify, mostly under pKd 3.1 to 4
# Settings: plain residues with an end cap or a label only (N-terminal biotin on a linker: ttds)
row,pKd,Binder
1,4.24,"EMDRRPATVV [PLCB4, Q15147]"

# Target: DLG4_1, P78352
# Sequence (P78352 62-152): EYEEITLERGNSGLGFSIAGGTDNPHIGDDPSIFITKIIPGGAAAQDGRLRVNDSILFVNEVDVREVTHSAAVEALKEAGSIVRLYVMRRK
# Experiment: holdup assay
# Parameters: key: below the threshold = too weak to quantify, mostly under pKd 3.1 to 4
# Settings: plain residues with an end cap or a label only (N-terminal biotin on a linker: ttds)
row,pKd,Binder
1,4.13,"EMDRRPATVV [PLCB4, Q15147]"

# Target: T9, DFNB31_3, Q9P202
# Experiment: holdup assay
# Parameters: key: below the threshold = too weak to quantify, mostly under pKd 3.1 to 4
# Settings: plain residues with an end cap or a label only (N-terminal biotin on a linker: ttds)
row,pKd,Binder
1,3.69,"EMDRRPATVV [PLCB4, Q15147]"

# Target: GORASP1, Q9BQQ3
# Sequence (Q9BQQ3 1-208): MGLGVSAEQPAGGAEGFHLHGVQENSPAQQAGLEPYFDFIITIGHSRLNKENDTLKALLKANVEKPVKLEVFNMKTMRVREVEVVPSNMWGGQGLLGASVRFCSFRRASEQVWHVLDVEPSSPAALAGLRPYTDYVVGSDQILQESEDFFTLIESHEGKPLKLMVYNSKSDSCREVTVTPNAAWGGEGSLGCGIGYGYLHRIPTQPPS
# Experiment: holdup assay
# Parameters: key: below the threshold = too weak to quantify, mostly under pKd 3.1 to 4
# Settings: plain residues with an end cap or a label only (N-terminal biotin on a linker: ttds)
row,pKd,Binder
1,4.06,"EMDRRPATVV [PLCB4, Q15147]"

# Target: T10, SYNJ2BP, P57105
# Experiment: holdup assay
# Parameters: key: below the threshold = too weak to quantify, mostly under pKd 3.1 to 4
# Settings: plain residues with an end cap or a label only (N-terminal biotin on a linker: ttds)
row,pKd,Binder
1,3.7,"EMDRRPATVV [PLCB4, Q15147]"

# Target: TJP1_2, Q07157
# Sequence (Q07157 181-274): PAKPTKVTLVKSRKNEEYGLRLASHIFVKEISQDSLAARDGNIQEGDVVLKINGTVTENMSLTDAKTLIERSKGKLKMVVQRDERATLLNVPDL
# Experiment: holdup assay
# Parameters: key: below the threshold = too weak to quantify, mostly under pKd 3.1 to 4
# Settings: plain residues with an end cap or a label only (N-terminal biotin on a linker: ttds)
row,pKd,Binder
1,below the threshold,"EMDRRPATVV [PLCB4, Q15147]"

# Target: SCRIB_1, Q14160
# Sequence (Q14160 718-814): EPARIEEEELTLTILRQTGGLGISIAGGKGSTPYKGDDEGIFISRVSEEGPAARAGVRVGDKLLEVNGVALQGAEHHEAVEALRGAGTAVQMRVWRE
# Experiment: holdup assay
# Parameters: key: below the threshold = too weak to quantify, mostly under pKd 3.1 to 4
# Settings: plain residues with an end cap or a label only (N-terminal biotin on a linker: ttds)
row,pKd,Binder
1,3.84,"EMDRRPATVV [PLCB4, Q15147]"

# Target: MAGI2_3, Q86UL8
# Sequence (Q86UL8 600-682): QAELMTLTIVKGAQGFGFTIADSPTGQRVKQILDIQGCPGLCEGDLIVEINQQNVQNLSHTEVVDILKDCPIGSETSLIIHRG
# Experiment: holdup assay
# Parameters: key: below the threshold = too weak to quantify, mostly under pKd 3.1 to 4
# Settings: plain residues with an end cap or a label only (N-terminal biotin on a linker: ttds)
row,pKd,Binder
1,below the threshold,"EMDRRPATVV [PLCB4, Q15147]"
